Measurements reported in patent US20130344070A1.

Target: human CCR2 (CC-Chemokine Receptor 2) (human) (UniProt P41597)
Test: cell-based or functional assay

Chain of human CCR2 (CC-Chemokine Receptor 2) (human) (P41597 whole entry): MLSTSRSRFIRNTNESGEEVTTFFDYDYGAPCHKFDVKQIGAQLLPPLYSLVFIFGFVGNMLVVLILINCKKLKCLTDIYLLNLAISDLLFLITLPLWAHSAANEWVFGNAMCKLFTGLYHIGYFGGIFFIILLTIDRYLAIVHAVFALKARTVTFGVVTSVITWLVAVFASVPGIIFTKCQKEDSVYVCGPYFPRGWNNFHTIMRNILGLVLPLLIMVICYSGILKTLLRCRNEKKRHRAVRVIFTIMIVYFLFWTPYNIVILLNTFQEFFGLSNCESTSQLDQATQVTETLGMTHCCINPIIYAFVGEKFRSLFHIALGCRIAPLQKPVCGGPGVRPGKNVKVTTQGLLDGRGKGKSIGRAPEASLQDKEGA

B1: MLN1202 (Takeda) (antibody, INN chains, looked up, V domains shown)
VH: EVQLVESGGGLVKPGGSLRLSCAASGFTFSAYAMNWVRQAPGKGLEWVGRIRTKNNNYATYYADSVKDRFTISRDDSKNTLYLQMNSLKTEDTAVYYCTTFYGNGVWGQGTLVTVSS
VL: DVVMTQSPLSLPVTLGQPASISCKSSQSLLDSDGKTFLNWFQQRPGQSPRRLIYLVSKLDSGVPDRFSGSGSGTDFTLKISRVEAEDVGVYYCWQGTHFPYTFGQGTRLEIK
  IC50 in calcium flux assay using human THP-1 cells, ligand MCP-1 (2.5 nM): 0.25 nM
  IC50 in calcium flux assay using human THP-1 cells, ligand MCP-3 (22 nM): 0.11 nM
  IC50 in calcium flux assay using human THP-1 cells, ligand MCP-5 (0.43 nM): 0.18 nM
  IC50 in chemotaxis assay using human THP-1 cells, ligand MCP-1 (3 nM): 0.31 nM
  IC50 in chemotaxis assay using human THP-1 cells, ligand MCP-2 (6.7 nM): 0.46 nM
  IC50 in chemotaxis assay using human THP-1 cells, ligand MCP-3 (1.1 nM): 1.83 nM
  IC50 in chemotaxis assay using human THP-1 cells, ligand MCP-4 (35 nM): 0.84 nM
  IC50 in chemotaxis assay using human THP-1 cells, ligand MCP-5 (0.65 nM): 0.37 nM
  IC50 on MCP-1 induced THP-1 cell migration: 0.309 nM
  IC50 on MCP-2 induced THP-1 cell migration: 0.459 nM
  IC50 on MCP-3 induced THP-1 cell migration: 1.83 nM
  IC50 on MCP-4 induced THP-1 cell migration: 0.843 nM
  IC50 on mouse MCP-5 induced THP-1 cell migration: 0.368 nM
